The results in this text go back to ChEMBL document CHEMBL1908105, “UDP-glucuronosyltransferases and clinical drug-drug interactions” (Pharmacol Ther, 2005).

The term IC50 denotes the concentration at which inhibition is half-maximal. As usually defined, the Km is the substrate concentration at which the rate is half of its maximum. By Ki is commonly meant the dissociation constant of the complex between target and ligand, obtained from inhibition or displacement. Low values mean tighter binding, high ones weaker binding.

The nature of data set [1]: Inhibition of AZT (0.02 mM) glucuronidation by human UGT enzymes from liver microsomes. Set-up: species or system Microsome. (In general: Microsomes from liver hold many membrane-bound enzymes, among them those of drug oxidation.)
Data set [2] concerns the target T1, UDP-glucuronosyltransferase 1A4 (Homo sapiens, UniProt P22310).
T1 sequence (P22310 whole entry): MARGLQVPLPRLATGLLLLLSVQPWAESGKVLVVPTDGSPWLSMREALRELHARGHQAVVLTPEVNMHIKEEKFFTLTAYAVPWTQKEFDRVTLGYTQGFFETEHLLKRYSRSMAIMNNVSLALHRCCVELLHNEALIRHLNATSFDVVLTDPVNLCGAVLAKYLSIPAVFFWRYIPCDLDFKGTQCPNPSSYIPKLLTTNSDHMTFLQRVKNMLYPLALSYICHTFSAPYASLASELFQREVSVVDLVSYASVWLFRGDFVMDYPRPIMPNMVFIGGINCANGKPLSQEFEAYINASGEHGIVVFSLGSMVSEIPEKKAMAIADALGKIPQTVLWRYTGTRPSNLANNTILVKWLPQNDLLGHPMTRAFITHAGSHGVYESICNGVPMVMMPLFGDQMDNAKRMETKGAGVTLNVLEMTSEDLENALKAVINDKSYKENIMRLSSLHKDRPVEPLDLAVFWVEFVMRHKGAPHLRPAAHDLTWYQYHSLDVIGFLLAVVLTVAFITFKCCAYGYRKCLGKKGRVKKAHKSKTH
The data set can be described thus: Drug glucuronidation reaction catalyzed by human recombinant UGT1A4.

Data set [3] deals with UDP-glucuronosyltransferase 2B15 (Homo sapiens, UniProt P54855). The data set can be described thus: Drug glucuronidation reaction catalyzed by human recombinant UGT2B15.
For data set [4], the target named is T2, UDP-glucuronosyltransferase 1A9 (Homo sapiens, UniProt O60656).
T2 sequence (O60656 whole entry): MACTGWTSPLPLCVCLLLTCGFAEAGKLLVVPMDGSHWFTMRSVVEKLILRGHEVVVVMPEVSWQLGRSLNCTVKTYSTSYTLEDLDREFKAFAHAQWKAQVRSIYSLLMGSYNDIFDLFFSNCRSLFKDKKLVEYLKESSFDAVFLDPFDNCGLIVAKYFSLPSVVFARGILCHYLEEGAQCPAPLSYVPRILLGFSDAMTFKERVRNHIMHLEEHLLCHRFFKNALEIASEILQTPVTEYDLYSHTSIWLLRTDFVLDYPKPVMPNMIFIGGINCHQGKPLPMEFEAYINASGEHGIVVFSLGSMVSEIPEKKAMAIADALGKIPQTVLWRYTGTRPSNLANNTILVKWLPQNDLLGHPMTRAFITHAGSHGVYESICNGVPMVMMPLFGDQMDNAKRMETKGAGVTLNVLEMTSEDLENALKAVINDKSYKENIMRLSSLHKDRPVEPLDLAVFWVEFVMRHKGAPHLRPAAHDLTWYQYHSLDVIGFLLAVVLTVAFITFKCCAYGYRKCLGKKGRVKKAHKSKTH
Nature of the data set: Drug glucuronidation reaction catalyzed by human recombinant UGT1A9.

In data set [5] the target is T3, UDP-glucuronosyltransferase 1A1 (Homo sapiens, UniProt P22309).
T3 sequence (P22309 whole entry): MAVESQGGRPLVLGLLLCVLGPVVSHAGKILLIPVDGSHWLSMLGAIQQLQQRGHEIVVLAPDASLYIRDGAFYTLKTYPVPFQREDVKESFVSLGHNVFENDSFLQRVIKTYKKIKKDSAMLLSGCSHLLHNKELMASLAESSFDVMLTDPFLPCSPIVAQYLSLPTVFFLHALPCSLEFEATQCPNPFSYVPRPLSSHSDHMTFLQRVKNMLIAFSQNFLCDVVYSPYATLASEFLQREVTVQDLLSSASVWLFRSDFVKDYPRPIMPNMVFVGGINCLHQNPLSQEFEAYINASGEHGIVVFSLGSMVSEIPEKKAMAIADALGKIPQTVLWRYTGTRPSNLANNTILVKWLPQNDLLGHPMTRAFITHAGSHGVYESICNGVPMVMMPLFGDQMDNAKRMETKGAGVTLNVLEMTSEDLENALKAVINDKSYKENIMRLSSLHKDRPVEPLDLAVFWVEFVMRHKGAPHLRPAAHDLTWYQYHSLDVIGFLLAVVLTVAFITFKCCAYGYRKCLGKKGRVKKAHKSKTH
Nature of the data set: Drug glucuronidation reaction catalyzed by human recombinant UGT1A1.

Data set [6] concerns the target T4, UDP-glucuronosyltransferase 2B7 (Homo sapiens, UniProt P16662).
T4 sequence (P16662 whole entry): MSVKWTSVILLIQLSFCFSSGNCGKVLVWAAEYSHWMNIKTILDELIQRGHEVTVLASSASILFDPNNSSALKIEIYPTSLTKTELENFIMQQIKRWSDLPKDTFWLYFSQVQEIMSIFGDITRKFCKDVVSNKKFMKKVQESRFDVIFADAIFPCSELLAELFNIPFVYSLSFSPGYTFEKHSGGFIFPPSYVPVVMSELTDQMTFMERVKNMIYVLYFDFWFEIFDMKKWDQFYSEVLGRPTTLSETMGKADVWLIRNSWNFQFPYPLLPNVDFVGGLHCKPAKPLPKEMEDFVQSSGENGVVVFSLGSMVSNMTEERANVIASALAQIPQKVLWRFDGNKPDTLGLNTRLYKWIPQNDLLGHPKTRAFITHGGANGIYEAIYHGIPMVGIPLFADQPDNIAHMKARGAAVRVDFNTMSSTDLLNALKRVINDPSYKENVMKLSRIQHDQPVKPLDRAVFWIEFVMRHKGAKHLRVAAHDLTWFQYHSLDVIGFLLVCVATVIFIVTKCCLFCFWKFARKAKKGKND
The data set can be described thus: (§1) Drug glucuronidation reaction catalyzed by human recombinant UGT2B7.

For another data set, the target named is T5, UGT2B7 (Homo sapiens, UniProt P16662).
T5 sequence (P16662 whole entry): T4 sequence (P16662 whole entry)
The description is as §1. Particulars: recombinant UGT2B7.

Data set [7] deals with T6, UDP-glucuronosyltransferase 1A3 (Homo sapiens, UniProt P35503).
T6 sequence (P35503 whole entry): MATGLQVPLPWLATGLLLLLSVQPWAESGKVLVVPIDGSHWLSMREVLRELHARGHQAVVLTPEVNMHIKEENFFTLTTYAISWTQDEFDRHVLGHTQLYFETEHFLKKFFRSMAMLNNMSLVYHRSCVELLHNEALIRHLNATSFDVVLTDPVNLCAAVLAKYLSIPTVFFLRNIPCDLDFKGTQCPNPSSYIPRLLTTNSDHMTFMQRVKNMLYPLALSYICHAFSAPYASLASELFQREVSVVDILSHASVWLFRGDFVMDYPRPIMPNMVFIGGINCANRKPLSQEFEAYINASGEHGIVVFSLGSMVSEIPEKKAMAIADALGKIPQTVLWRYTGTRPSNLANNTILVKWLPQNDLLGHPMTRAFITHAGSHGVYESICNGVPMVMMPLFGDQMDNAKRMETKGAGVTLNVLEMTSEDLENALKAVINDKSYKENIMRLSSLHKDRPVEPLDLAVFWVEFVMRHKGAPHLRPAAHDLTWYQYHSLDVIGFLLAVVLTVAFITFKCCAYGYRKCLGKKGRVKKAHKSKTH
Nature of the data set: (§2) Drug glucuronidation reaction catalyzed by human recombinant UGT1A3.

The target of another data set is UGT1A3 (Homo sapiens, UniProt P35503). The data set is described as §2. The conditions noted are these: recombinant UGT1A3.
Data set [8] in a line: Inhibition of AZT glucuronidation by human UGT enzymes from liver microsomes. Further details: species or system Microsome.
Substrate in data set [9]: O=C1Nc2ccc(Cl)cc2C(c2ccccc2)=N[C@H]1O
The data set can be described thus: not read.

Substrate in data set [10]: Cc1c(Cl)cccc1Nc1ncccc1C(=O)O
Nature of the data set: not read.

Substrate in data set [11]: O=C1Nc2ccc(Cl)cc2C(c2ccccc2)=N[C@@H]1O
Nature of the data set: not read.

Substrate in data set [12]: COc1ccc(Cl)cc1[C@]1(F)C(=O)Nc2cc(C(F)(F)F)ccc21
The description is as §1.

Substrate in data set [13]: CCC[S+]([O-])CCCN(CC)CC(O)COc1ccc(C#N)cc1
The data set is described as §1.

Substrate in data set [14]: CS(=O)(=O)c1ccc(C2=C(c3ccccc3)C(=O)OC2O)cc1
Described as §1.

Substrate in data set [15]: C=CCN1CC[C@]23c4c5ccc(O)c4O[C@H]2[C@@H](O)C=C[C@H]3[C@H]1C5
The description is as §1.

Substrate in data set [16]: CC(C)Cc1ccc(C(C)C(=O)O)cc1
Described as §1.

Substrate in data set [17]: C=CC[C@@H]1/C=C(\C)C[C@H](C)C[C@H](OC)[C@H]2O[C@@](O)(C(=O)C(=O)N3CCCC[C@H]3C(=O)O[C@H](/C(C)=C/[C@@H]3CC[C@@H](O)[C@H](OC)C3)[C@H](C)[C@@H](O)CC1=O)[C@H](C)C[C@@H]2OC
The data set is described as §1.

Substrate in data set [18]: CO[C@]12CC[C@@]3(C[C@@H]1[C@](C)(O)C(C)(C)C)[C@H]1Cc4ccc(O)c5c4[C@@]3(CCN1CC1CC1)[C@H]2O5
The data set is described as §1.

Substrate in data set [19]: CC(C(=O)O)c1cccc(C(=O)c2ccccc2)c1
The data set is described as §1.

Substrate in data set [20]: O=C1[C@H](CC[C@H](O)c2ccc(F)cc2)[C@@H](c2ccc(O)cc2)N1c1ccc(F)cc1
Described as §1.

Substrate in data set [21]: NC(=O)N1c2ccccc2C=Cc2ccccc21
Described as §1.

Substrate in data set [22]: COc1cccc2c1C(=O)c1c(O)c3c(c(O)c1C2=O)C[C@@](O)(C(=O)CO)C[C@@H]3O[C@H]1C[C@H](N)[C@@H](O)[C@H](C)O1
The data set is described as §1.

Chain of UDP-glucuronosyltransferase 2B15 (P54855 whole entry): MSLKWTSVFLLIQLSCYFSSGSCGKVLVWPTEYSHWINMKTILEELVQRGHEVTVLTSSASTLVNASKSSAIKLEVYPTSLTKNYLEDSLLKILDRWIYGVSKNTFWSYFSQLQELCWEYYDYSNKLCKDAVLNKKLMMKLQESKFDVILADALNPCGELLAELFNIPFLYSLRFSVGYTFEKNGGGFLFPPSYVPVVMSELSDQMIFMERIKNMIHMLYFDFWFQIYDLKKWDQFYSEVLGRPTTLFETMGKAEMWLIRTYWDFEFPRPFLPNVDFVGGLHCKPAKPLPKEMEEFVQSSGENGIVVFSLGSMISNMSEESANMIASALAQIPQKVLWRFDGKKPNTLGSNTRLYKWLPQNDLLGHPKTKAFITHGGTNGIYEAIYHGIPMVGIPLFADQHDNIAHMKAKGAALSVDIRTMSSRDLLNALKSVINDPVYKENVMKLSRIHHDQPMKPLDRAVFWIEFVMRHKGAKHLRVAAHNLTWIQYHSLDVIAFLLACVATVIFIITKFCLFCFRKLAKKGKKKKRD

In data set [1], `O=C1C(O)=C([C@H]2CC[C@H](c3ccc(Cl)cc3)CC2)C(=O)c2ccccc21` [ATOVAQUONE] registered a concentration for half-maximal inhibition (IC50) above 273 µM.

As for `OC(Cn1cncn1)(Cn1cncn1)c1ccc(F)cc1F` [FLUCONAZOLE], the midpoint of inhibition in data set [1], the IC50, lay at 163 µM.

As to `CC(O)/C(=C(\c1ccccc1)c1ccc(OCCN(C)C)cc1)c1ccccc1` (stereo in doubt; cis), the Vmax in data set [2] was 315 pmol/min/mg protein; in [3], 720 pmol/min/mg protein; in data set [4], 57 pmol/min/mg protein; in [5] it was 291 pmol/min/mg protein.

Consider `CC(C(=O)O)c1ccc(-c2ccccc2)c(F)c1` (stereo not drawn) [FLURBIPROFEN], for which the Vmax in data set [6] was 315 pmol/min/mg protein; in data set [7], 45 pmol/min/mg protein. For the same molecule, the Km worked out at 28 µM at UGT2B7 and 90 µM on UGT1A3. In data set [8], this molecule displayed a Ki of 50 µM.

As for `CC(O)/C(=C(\c1ccccc1)c1ccc(OCCN(C)C)cc1)c1ccccc1` (stereo in doubt; trans), the Vmax in [2] came to 547 pmol/min/mg protein; in data set [3], 70 pmol/min/mg protein; in [4] it was 72 pmol/min/mg protein; in [5] it was 166 pmol/min/mg protein.

B1: UDP-glucuronosyltransferase 2B7 (Homo sapiens) (protein)
chain: T4 sequence (P16662 whole entry)
For the molecule B1, the Km in the data set “not read [9]” came to 203 µM; in the data set “not read [10]”, 64 µM; in the data set “not read [11]” it was 333 µM; in data set [12] it was 14 µM; in data set [13] it was 970 µM; in data set [14], 42 µM. The Km in data set [15] turned out to be 260 µM; in data set [16], 55 µM; in data set [17] it was 449 µM; in [18] it was 24 µM; in [19] it was 112 µM; in data set [20], 21 µM. In addition, the Michaelis constant (Km) in data set [21] came to 214 µM; in data set [22] it was 149 µM. The Vmax came out at 2e-06 µmol/min/mg in “not read [9]”; 0.00022 µmol/min/mg in “not read [10]”; 7e-06 µmol/min/mg in “not read [11]”; 0.00029 µmol/min/mg in [12]; 2.1e-05 µmol/min/mg in data set [13]; 4.7e-05 µmol/min/mg in data set [14]. Besides, the Vmax amounted to 0.000461 µmol/min/mg in [15]; 0.000477 µmol/min/mg in data set [16]; 0.000588 µmol/min/mg in data set [17]; 2.6e-05 µmol/min/mg in [18]; 0.00045 µmol/min/mg in [19]; 5e-05 µmol/min/mg in data set [20]. Moreover, the Vmax was found to be 1e-06 µmol/min/mg in data set [21] and 9.9e-05 µmol/min/mg in data set [22].
